Experimental data reported in the supplement of paper PMC10567573.
± gives the standard deviation.

Assay: protein stability index of a GFP-peptide fusion (GPS, HEK-293T) (PSI 1-6); higher = more stable
[1] = treatment: DMSO, c terminus: a fixed tail appended
[2] = treatment: MLN4924 1 uM, 8 h, c terminus: a fixed tail appended
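Note: 24-mer peptide tiles fused after GFP, lentivirally expressed, FACS-sorted into six equal bins by GFP/DsRed ratio, decoded by Illumina sequencing, PSI is the read-weighted mean bin number.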

| Sequence | protein stability index [1] | protein stability index [2] | protein stability index (treatment: DMSO, c terminus: native) | protein stability index (treatment: MLN4924 1 uM, 8 h, c terminus: native) |
| --- | --- | --- | --- | --- |
| QELEEEIKELYENFCKHNGSKNVF [ATL3] | 3.02 ± 0.32 | 3.57 ± 0.48 | – | – |
| ELAALLIERGASLEEVNDEGYTPL [ANKRD17] | 2.34 ± 0.29 | 2.78 ± 0.53 | – | – |
| LCVILYKKVHKGTVPKNDADDESE [GLT8D2] | 2.02 ± 0.15 | 2.31 ± 0.1 | – | – |
| YSSSRDGYGGSRDSYSSSRSDLYS [RBMX] | 3.51 ± 0.14 | 3.79 ± 0.21 | – | – |
| GGLGTPLRLPMLNTEVVQVAAGRT [NEK8] | 4.11 ± 0.35 | 4.06 ± 0.31 | – | – |
| SAENGLEKSGFSQHQNKSPPKVKA [DLC1] | 5.14 ± 0.44 | 5.1 ± 0.45 | – | – |
| GGFMGYSAENIPGCSSSGSCSQGS [CRY1] | 4.14 ± 0.3 | 4.4 ± 0.28 | – | – |
| YYTTMQTLTKQDTMLKAMFSGRME [KCTD10] | 2.4 ± 0.16 | 2.4 ± 0.36 | – | – |
| LPTVGGQLGTAGQGFSYSKSNGRG [MYOZ1] | 4.3 ± 0.21 | 4.4 ± 0.35 | – | – |
| YTFVPWLLSFKRGSALEEKENKIL [TNFSF13B] | 2.51 ± 0.59 | 2.22 ± 0.3 | – | – |
| QAYAHYLLATFPRRALAPPSAGFR [ANKRD9] | 2.31 ± 0.22 | 2.37 ± 0.23 | – | – |
| EAQHGPHSAVARISRAQYNALTLT [STX11] | 3.32 ± 0.11 | 3.47 ± 0.31 | – | – |
| ESMYGDFQEAMTHLQHKLICTRKP [TENT5D] | 3.54 ± 0.17 | 3.58 ± 0.38 | – | – |
| SMEKDATLNVDRKEKCVSLPDCCH [DLC1] | 4.81 ± 0.2 | 4.92 ± 0.17 | – | – |
| DVEDLQRDKARLLREKVEFLRSLR [NFE2L1] | 3.33 ± 0.48 | 3.18 ± 0.34 | – | – |
| PGQGGPASTPAQTAAGGQGGPGGP [NR2F2] | 5.25 ± 0.21 | 5.33 ± 0.37 | – | – |
| QDGSPTTSRRPSGTGTGPEDGRPS [PDLIM4] | 5.37 ± 0.22 | 5.66 ± 0.16 | – | – |
| MWLLVSVILISRISSVGGEAMFCD [CFHR2] | 3.35 ± 0.25 | 3.08 ± 0.52 | – | – |
| EEMAVVPQGLFRGGKSGELEQEEE [CHGA] | 5.63 ± 0.27 | 5.62 ± 0.18 | – | – |
| SPKRGTAPGDLSATEPATCFPSTQ [FBF1] | 4.87 ± 0.18 | 4.92 ± 0.24 | – | – |
| WAAPRVGPLPPAPAMVRISKPKTF [YPEL3] | 3.15 ± 0.43 | 3.25 ± 0.18 | – | – |
| LSSVEAYNIRTDSWTTVTSMTTPR [KLHL12] | 2.79 ± 0.31 | 3.23 ± 0.37 | – | – |

| Sequence | protein stability index [1] | protein stability index [2] | protein stability index (treatment: DMSO, c terminus: native) | protein stability index (treatment: MLN4924 1 uM, 8 h, c terminus: native) |
| --- | --- | --- | --- | --- |
| LRSFCAWQRGLNTPEDSDPDHFDT [ADAMTS4] | 4.12 ± 0.27 | 4.24 ± 0.2 | – | – |
| AEGLANGPDVLETDGLQEVPLCSC [EHMT1] | 4.75 ± 0.2 | 5 ± 0.31 | – | – |
| PTPMPHNKGTRFSEAWEYFHLAPA [ZBED2] | 2.65 ± 0.2 | 2.71 ± 0.33 | – | – |
| EKTNGATPLLMAARYGHLDMVEFL [FEM1C] | 2.91 ± 0.2 | 3.05 ± 0.37 | – | – |
| KLQLQLNETKSQAFVSNSPKLFCP [PLD5] | 2.87 ± 0.075 | 2.95 ± 0.6 | – | – |
| ISRALLSDVVPEKERPLVIGHFNT [MFSD9] | 3.04 ± 0.45 | 2.99 ± 0.31 | – | – |
| LSLYQLSLERGTALFAQVQRGALP [RSAD1] | 2.23 ± 0.36 | 2.32 ± 0.44 | – | – |
| VSLRYSGATAASETLSGHGPLAQP [ADAMTS4] | 3.08 ± 0.15 | 3.21 ± 0.066 | – | – |
| APKDSAPQDLAPQVSAHHRSQESL [TBC1D10A] | 5.36 ± 0.2 | 5.38 ± 0.14 | – | – |
| AAPPPPATPIVPVVPPTPPVVKKK [BRD3] | 5.51 ± 0.21 | 5.25 ± 0.48 | – | – |
| ILGETQEEEDEILPRKDYESLDYD [CLCN6] | 5.33 ± 0.2 | 5.18 ± 0.086 | – | – |
| EFLLDLGHHERSIMTDLYYLSQTD [FUT8] | 2.2 ± 0.36 | 2.47 ± 0.16 | – | – |
| QCRERREHPNLVRDHVETELLKEA [TEKT4] | 4.77 ± 0.19 | 4.97 ± 0.23 | – | – |
| PLNRFSSVPLDPMERPMSQADLEL [CBY2] | 4.47 ± 0.18 | 4.53 ± 0.28 | – | – |
| SLEESVGKPLYLIFRNLCQMQEDN [INTS3] | 2.45 ± 0.45 | 2.46 ± 0.22 | – | – |
| SSVSPAVSKASSRRSSFSMEEES [TFE3] | – | – | 5.44 ± 0.14 | 5.28 ± 0.17 |
| SRAESAPLPVSADDTPEVLNRALS [CDS2] | 5.36 ± 0.19 | 5.37 ± 0.21 | – | – |
| ECAMETTEEQTRQERQGPAKPEVL [NECAB1] | 5.57 ± 0.33 | 5.6 ± 0.23 | – | – |
| VPKNYVVVLSDGPALHPAHAPQIS [NCK2] | 2.42 ± 0.17 | 2.61 ± 0.31 | – | – |
| MTTSIRQFTSSSSIKGSSGLGGGS [KRT17] | 3.58 ± 0.11 | 3.39 ± 0.43 | – | – |
| ENRELYIKTTLRELLVYIVFLVDI [PKD2L1] | 2.58 ± 0.87 | 2.57 ± 0.82 | – | – |
| QNARLAELERKLREVMESAVGNSS [FBXO28] | 3.68 ± 0.23 | 3.52 ± 0.34 | – | – |
